Data on 1 molecule can be found in article PMC5510004, “Recruitment and positioning determine the specific role of the XPF‐ERCC1 endonuclease in interstrand crosslink repair”.

Data set [1] has as its target T1, XPF deltaNSGW;ERCC1 wild type (hsERCC1) (Xenopus laevis;Homo sapiens?, UniProt A0A8J0PXV9;P07992 1-897;1-297, del312-315|).
T1 sequence 1: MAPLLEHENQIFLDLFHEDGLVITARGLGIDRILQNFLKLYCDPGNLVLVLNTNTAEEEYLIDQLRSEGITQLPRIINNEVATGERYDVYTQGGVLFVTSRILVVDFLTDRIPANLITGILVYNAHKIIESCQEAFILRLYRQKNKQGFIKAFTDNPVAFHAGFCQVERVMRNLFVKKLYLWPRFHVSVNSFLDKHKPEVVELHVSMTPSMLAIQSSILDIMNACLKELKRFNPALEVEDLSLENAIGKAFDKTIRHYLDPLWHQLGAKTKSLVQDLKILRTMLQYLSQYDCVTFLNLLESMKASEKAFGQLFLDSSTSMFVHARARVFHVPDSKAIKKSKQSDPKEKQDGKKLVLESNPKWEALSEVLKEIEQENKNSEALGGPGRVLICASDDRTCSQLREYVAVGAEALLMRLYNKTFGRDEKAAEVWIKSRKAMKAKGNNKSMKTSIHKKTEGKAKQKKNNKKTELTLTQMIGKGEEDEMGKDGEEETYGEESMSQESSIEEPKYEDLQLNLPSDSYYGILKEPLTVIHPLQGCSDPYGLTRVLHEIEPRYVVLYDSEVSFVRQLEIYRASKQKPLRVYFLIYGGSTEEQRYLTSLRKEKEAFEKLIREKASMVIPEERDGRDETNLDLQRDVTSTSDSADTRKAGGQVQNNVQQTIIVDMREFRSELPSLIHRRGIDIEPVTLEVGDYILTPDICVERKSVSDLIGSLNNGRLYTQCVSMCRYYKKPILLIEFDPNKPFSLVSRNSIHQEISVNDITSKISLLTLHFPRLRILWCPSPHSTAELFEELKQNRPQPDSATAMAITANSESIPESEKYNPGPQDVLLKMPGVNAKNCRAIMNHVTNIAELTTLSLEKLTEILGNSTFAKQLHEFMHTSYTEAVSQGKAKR
T1 sequence 2: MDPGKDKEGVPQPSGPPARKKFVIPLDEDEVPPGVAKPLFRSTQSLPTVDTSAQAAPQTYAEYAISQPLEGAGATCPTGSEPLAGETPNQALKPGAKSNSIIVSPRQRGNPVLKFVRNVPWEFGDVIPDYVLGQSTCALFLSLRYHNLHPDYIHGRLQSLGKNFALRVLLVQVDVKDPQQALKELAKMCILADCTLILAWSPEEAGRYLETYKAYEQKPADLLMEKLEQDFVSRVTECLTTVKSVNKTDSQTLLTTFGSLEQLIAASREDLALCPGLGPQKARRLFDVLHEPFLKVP
Description: fluorescence anisotropy; 2 mM Ca2+; comparable to wild type; 25 mM Hepes pH 8.0, 15% glycerol, 0.1 mg/ml BSA, 2 mM CaCl2, 10 nM DNA, 1 h at room temperature. As to conditions: protein: recombinant;recombinant; tags: FLAG;His; copies: 1;1; label: 5'-FAM on F1; three strands 1:1:1. For orientation: Fluorescence polarisation rises when a labelled molecule tumbles more slowly, as on binding a larger partner.

For data set [2], the target named is T2, XPF L219R;ERCC1 wild type (hsERCC1) (Xenopus laevis;Homo sapiens?, UniProt A0A8J0PXV9;P07992 1-897;1-297, L219R|).
T2 sequence 1: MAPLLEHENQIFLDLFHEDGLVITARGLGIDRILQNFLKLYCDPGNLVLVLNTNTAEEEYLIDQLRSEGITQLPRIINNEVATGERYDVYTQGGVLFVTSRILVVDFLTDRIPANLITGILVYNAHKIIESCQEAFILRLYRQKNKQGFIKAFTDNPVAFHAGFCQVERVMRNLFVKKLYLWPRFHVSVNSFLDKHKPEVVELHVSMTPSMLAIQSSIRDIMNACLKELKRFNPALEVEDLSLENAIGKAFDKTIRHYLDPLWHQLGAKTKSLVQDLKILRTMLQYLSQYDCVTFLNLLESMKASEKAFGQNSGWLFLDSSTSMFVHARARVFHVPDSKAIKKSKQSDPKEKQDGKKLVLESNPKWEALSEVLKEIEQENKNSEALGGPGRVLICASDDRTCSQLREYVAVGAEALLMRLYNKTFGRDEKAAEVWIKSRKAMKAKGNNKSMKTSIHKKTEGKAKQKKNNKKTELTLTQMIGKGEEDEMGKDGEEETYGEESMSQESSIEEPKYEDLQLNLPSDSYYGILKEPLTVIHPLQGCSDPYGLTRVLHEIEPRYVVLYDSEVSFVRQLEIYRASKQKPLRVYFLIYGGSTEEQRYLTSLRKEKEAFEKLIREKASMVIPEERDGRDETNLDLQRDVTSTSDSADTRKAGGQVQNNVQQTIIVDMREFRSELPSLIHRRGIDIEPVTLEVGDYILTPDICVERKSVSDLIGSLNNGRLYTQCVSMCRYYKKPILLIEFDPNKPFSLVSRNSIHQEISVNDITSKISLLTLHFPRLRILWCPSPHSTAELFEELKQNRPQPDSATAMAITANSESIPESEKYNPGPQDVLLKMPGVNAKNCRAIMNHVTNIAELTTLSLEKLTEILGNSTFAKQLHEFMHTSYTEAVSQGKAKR
T2 sequence 2: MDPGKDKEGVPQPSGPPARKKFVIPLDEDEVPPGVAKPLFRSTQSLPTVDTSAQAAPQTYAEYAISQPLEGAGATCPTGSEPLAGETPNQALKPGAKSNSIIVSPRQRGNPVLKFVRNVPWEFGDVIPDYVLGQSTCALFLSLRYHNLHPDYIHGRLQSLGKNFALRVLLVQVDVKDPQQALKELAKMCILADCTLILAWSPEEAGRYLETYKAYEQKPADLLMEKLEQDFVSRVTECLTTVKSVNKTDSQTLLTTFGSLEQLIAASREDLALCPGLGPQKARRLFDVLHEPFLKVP
Described as above. As to conditions: protein: recombinant;recombinant; tags: FLAG;His; copies: 1;1; label: 5'-FAM on F1; three strands 1:1:1.

B1: 3' flap DNA substrate (F1+F2+F3) (dsDNA)
DNA 1: CGCGATGCGGATCCAA
DNA 2: CCTAGACTTAAGAGGCCAGACTTGGATCCGCATCGC
DNA 3: GGCCTCTTAAGTCTAGG
On to B1, for which the binding result in data set [1] and in data set [2] was “binds” each time.
